Experimental data as given in article PMC12514839 (Protein science : a publication of the Protein Society, 2025).

Target: CU228, putative PAS-HTH transcription factor from Candidatus Solibacter usitatus (Candidatus Solibacter usitatus)
Assay: SEC-MALS

Substance: CU228, putative PAS-HTH transcription factor from Candidatus Solibacter usitatus (natural protein)
- stoichiometry N: 2
